Laboratory results published in US20200308290A1 (AbbVie / Abbott, published 2020).
Residue numbers refer to the chain shown, from its start. Names and notes keep the numbering of the source.

T1: recombinant human CD25 (IL2-Rα) (human, UniProt P01589 22-213, limits assumed)
T1 construct: Bought protein; also called recombinant human IL2-Rα; recombinant soluble human CD25
T1 sequence (looked up): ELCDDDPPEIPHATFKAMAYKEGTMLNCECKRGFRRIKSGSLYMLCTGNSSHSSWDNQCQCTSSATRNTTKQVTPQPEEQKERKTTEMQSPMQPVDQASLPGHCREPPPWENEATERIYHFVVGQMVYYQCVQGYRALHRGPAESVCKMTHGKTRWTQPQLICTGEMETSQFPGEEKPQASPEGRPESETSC

T2: human CD25 (human, UniProt P01589 22-213, limits assumed)
T2 construct: Recombinant soluble human CD25, coated on plates (ELISA) or injected over captured antibody (BIAcore); also called hCD25; IL2-R alpha
T2 sequence (looked up): T1 sequence (looked up)

T3: CD25 (recombinant) (human, UniProt P01589 22-213, limits assumed)
T3 construct: bought protein; also called IL2-R alpha; IL2-Rα
T3 sequence (looked up): T1 sequence (looked up)

T4: human CD25 on cells (human, UniProt P01589 22-272)
T4 sequence (looked up): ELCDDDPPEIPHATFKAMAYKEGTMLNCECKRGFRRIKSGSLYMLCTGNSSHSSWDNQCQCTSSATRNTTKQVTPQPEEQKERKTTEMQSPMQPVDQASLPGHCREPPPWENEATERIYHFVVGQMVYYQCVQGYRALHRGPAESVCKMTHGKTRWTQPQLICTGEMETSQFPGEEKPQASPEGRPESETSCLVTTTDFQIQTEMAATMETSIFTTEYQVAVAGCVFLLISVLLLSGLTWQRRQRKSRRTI

T5: human CD25 (recombinant soluble) (human, UniProt P01589 22-240)
T5 construct: extracellular domain; bought protein; also called IL2-Rα; recombinant human IL2-Rα
T5 sequence (looked up): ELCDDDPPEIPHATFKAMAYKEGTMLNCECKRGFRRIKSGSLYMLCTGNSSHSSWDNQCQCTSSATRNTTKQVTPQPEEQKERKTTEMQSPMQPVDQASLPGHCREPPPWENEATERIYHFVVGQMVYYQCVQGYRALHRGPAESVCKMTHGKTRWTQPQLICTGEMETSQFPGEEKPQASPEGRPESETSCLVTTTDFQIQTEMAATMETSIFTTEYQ

B1: DAC I48L (antibody, IgG1, name in Kabat numbering, V domains shown)
VH: QVQLVQSGAEVKKPGSSVKVSCKASGYTFTSYRMHWVRQAPGQGLEWLGYINPSTGYTEYNQKFKDKATITADESTNTAYMELSSLRSEDTAVYYCARGGGVFDYWGQGTLVTVSS
VL: DIQMTQSPSTLSASVGDRVTITCSASSSISYMHWYQQKPGKAPKLLIYTTSNLASGVPARFSGSGSGTEFTLTISSLQPDDFATYYCHQRSTYPLTFGQGTKVEVK
notes: E.HAT variant, IgG1/kappa
B2: DAC I48V (antibody, IgG1, name in Kabat numbering, V domains shown)
VH: B1 VH with L48V
VL: B1 VL
notes: E.HAT variant, IgG1/kappa
B3: Variant C43 (antibody, name in Kabat numbering, V domains shown)
VH: B1 VH with L48M, N52S, S54R, T55S
VL: B1 VL with N52E
notes: Isotype as printed: G2M3.QL
B4: Variant C35 (antibody, name in Kabat numbering, V domains shown)
VH: B1 VH with L48M, N52K, T55R
VL: B1 VL with N52E
notes: Isotype as printed: G2M3.QL
B5: Variant C37 (antibody, name in Kabat numbering, V domains shown)
VH: B1 VH with L48M, N52K, T55S
VL: B1 VL with N52E
notes: Isotype as printed: G2M3.QL
B6: Variant C38 (antibody, name in Kabat numbering, V domains shown)
VH: B1 VH with L48M, N52S, S54R, T55K
VL: B1 VL
notes: Isotype as printed: G2M3.QL
B7: Variant C34 (antibody, V domains shown)
VH: B1 VH with L48M, N52K, T55R
VL: B1 VL with S28K, N52D
notes: Isotype as printed: G2M3.QL
B8: Variant C41 (antibody, name in Kabat numbering, V domains shown)
VH: B1 VH with L48M, N52S, S54R, T55S
VL: B1 VL
notes: Isotype as printed: G2M3.QL
B9: Variant C28 (antibody, V domains shown)
VH: B1 VH with L48M, T55S
VL: B1 VL with S28K, N52D
notes: Isotype as printed: G2M3.QL
B10: Variant C40 (antibody, name in Kabat numbering, V domains shown)
VH: B1 VH with L48M, N52S, S54R, T55K
VL: B1 VL with N52E
notes: Isotype as printed: G2M3.QL
B11: Variant C9 (antibody, name in Kabat numbering, V domains shown)
VH: B1 VH with L48I, N52R, S54K, T55R, E59Q
VL: B1 VL
notes: Isotype as printed: G1 fa
B12: Variant C10 (antibody, name in Kabat numbering, V domains shown)
VH: B1 VH with L48I, N52R, S54R, T55R, E59Q
VL: B1 VL
notes: Isotype as printed: G1 fa
B13: Variant C11 (antibody, name in Kabat numbering, V domains shown)
VH: B1 VH with L48I, N52S, S54K, T55R, E59Q
VL: B1 VL
notes: Isotype as printed: G1 fa
B14: Variant C12 (antibody, name in Kabat numbering, V domains shown)
VH: B1 VH with L48I, N52S, S54R, T55R, E59Q
VL: B1 VL
notes: Isotype as printed: G1 fa
B15: daclizumab variant S78 (antibody, IgG1, name in Kabat numbering, V domains shown)
VH: B1 VH with L48V
VL: B1 VL
notes: IgG1; Kabat positions; also called I48V; DAC I48V
B16: daclizumab variant S76 (antibody, IgG1, name in Kabat numbering, V domains shown)
VH: B1 VH
VL: B1 VL
notes: IgG1; Kabat positions; also called I48L; DAC I48L
B17: NuhuTacVH with daclizumabVL (antibody, V domains shown)
VH: B1 VH with Q1E, S16A, L48I, I70M, E74K, T76I, N77S
VL: B1 VL
notes: combination antibody
B18: daclizumab VH and NuhuTacVL (antibody, V domains shown)
VH: B1 VH with L48I
VL: EIVLTQSPATLSLSPGERATLTCSASSSISYMHWFQQKPGQAPRLLIYTTSNLASGIPARFSGSGSGTDYTLTISSLEPEDFAVYYCHQRSTYPLTFGQGTKVEIK
notes: combination antibody
B19: Variant C39 (antibody, V domains shown)
VH: B1 VH with L48M, N52S, S54R, T55K
VL: B1 VL with S28K, N52D
B20: SNKYL (antibody, IgG1, name in Kabat numbering, V domains shown)
VH: B1 VH with L48I, N52S, S54N, T55K, E59L
VL: B1 VL
notes: soluble IgG1 from the VH library; Kabat numbers; also called VH variant SNKYL
B21: RRGFE (antibody, IgG1, name in Kabat numbering, V domains shown)
VH: B1 VH with L48I, N52R, S54R, T55G, Y57F
VL: B1 VL
notes: soluble IgG1 from the VH library; Kabat numbers; also called VH variant RRGFE
B22: QRKFH (antibody, IgG1, name in Kabat numbering, V domains shown)
VH: B1 VH with L48I, N52Q, S54R, T55K, Y57F, E59H
VL: B1 VL
notes: soluble IgG1 from the VH library; Kabat numbers; also called VH variant QRKFH
B23: RKGFE (antibody, IgG1, name in Kabat numbering, V domains shown)
VH: B1 VH with L48I, N52R, S54K, T55G, Y57F
VL: B1 VL
notes: soluble IgG1 from the VH library; Kabat numbers; also called VH variant RKGFE
B24: RKGFN (antibody, IgG1, name in Kabat numbering, V domains shown)
VH: B1 VH with L48I, N52R, S54K, T55G, Y57F, E59N
VL: B1 VL
notes: soluble IgG1 from the VH library; Kabat numbers; also called VH variant RKGFN
B25: RRKFE (antibody, IgG1, name in Kabat numbering, V domains shown)
VH: B1 VH with L48I, N52R, S54R, T55K, Y57F
VL: B1 VL
notes: soluble IgG1 from the VH library; Kabat numbers; also called VH variant RRKFE

molecular target: T1, recombinant human CD25 (IL2-Rα); experiment: SPR (BIAcore), antibody captured by anti-human Fc, soluble human CD25 as analyte, n=3
Experimental: For this capture approach, 30 μg/ml of GAHFc was immobilized to achieve a high response unit (20,000 RU) on each flow cell on the Research-grade CMS sensor chip using the BIAcore amine coupling reagents (N-ethyl-N′-dimethylamino-propylcarbodiimide, EDC; N-hydroxysuccinimide, NHS; and ethanolamine HCl, pH 8.5). […] A 3 min association phase of CD25 was followed by a 15 min injection of HBS-P running buffer (10 mM HEPES, 150 mM sodium chloride, 0.005% P-20 surfactant, pH 7.4) to monitor dissociation for each binding cycle, with a different CD25 concentration per cycle. The surface was regenerated with 20 mM HCl at 100 μl/min flow rate at the end of each cycle. […] Double referencing was applied in each analysis to eliminate background responses from reference surface and buffer only control (0 nM). […] Each set of experiments was performed three times to assess the standard deviation of the data.
Modified antibody proteins were tested for binding affinity using a surface plasmon resonance assay format in a BIAcore device. […] Recombinant soluble human CD25 was flowed over the sensor chip and changes in mass were detected.

Kd | koff | kon | Binder
0.597 nM | 0.000222 s⁻¹ | 372000 M⁻¹ s⁻¹ | B1
0.493 nM | 0.000183 s⁻¹ | 371000 M⁻¹ s⁻¹ | B2

molecular target: T2, human CD25; experiment: competition ELISA vs biotinylated daclizumab, fold over wild type

ELISA fold improvement | Binder
4.2 fold | B3
7 fold | B4
4.1 fold | B5
8.2 fold | B6
7.8 fold | B7
6.1 fold | B8
1.6 fold | B9
6.8 fold | B10

molecular target: T2, human CD25; experiment: as above; remark: another data set of the same source

ELISA fold improvement | Binder
3.97 fold | B11
3.91 fold | B12
3.47 fold | B13
3.98 fold | B14

molecular target: T3, CD25 (recombinant); experiment: ELISA, relative to wild type; * = similar to WT

ELISA (wt = 1) | Binder
1.1 fold (wt = 1) | B15
1.32 fold (wt = 1) | B16

molecular target: T4, human CD25 on cells; experiment: cell-based or functional assay

Kit225 (fold improvement in inhibition of IL2-induced Kit225 proliferation) | PBMC (fold improvement in inhibition of IL2-induced PHA blast proliferation) | Binder
3 fold | 7.2 fold | B4
3.6 fold | 5.8 fold | B6
3.1 fold | 6.4 fold | B7
2.5 fold |  | B8
2.8 fold | 5.8 fold | B9
 | 7.7 fold | B10

molecular target: T5, human CD25 (recombinant soluble); experiment: competition ELISA on plate-coated CD25: competitor antibody titrated against biotinylated daclizumab, OD415

EC50 | Binder
0.47 µg/mL | B17
1.18 µg/mL | B18

molecular target: T3, CD25 (recombinant); experiment: SPR (BIAcore)

Fold improvement (KD) | Kd | koff | kon | Binder
1 fold over wild type | 0.493 nM | 0.000183 s⁻¹ | 371000 M⁻¹ s⁻¹ | B15
0.9 fold over wild type | 0.597 nM | 0.000222 s⁻¹ | 372000 M⁻¹ s⁻¹ | B16

molecular target: T1, recombinant human CD25 (IL2-Rα); experiment: SPR (BIAcore), affinity benchmarked to DAC-HYP, n=3
Experimental: Double referencing was applied in each analysis to eliminate background responses from reference surface and buffer only control (0 nM). […] Each set of experiments was performed three times to assess the standard deviation of the data.
Modified antibody proteins were tested for binding affinity using a surface plasmon resonance assay format in a BIAcore device. […] Recombinant soluble human CD25 was flowed over the sensor chip and changes in mass were detected. The data was interpreted to yield kₐ, kd and KD values for all the proteins tested.

Relative % KD | Binder
83% | B1
100% | B2

molecular target: T6, cynomolgous monkey CD25 (cynomolgous monkey); experiment: SPR (BIAcore), cynomolgous CD25
T6 construct: also called cmCD25; cm

Kd | Binder
0.031 nM | B19

molecular target: T2, human CD25; experiment: SPR (BIAcore)

Kd | Binder
0.181 nM | B11
0.244 nM | B12
0.138 nM | B13
0.155 nM | B14

molecular target: T2, human CD25; experiment: SPR (BIAcore); remark: another data set of the same source

Kd | Binder
0.034 nM | B4
0.0095 nM | B6
0.021 nM | B7
0.054 nM | B9
0.012 nM | B10

molecular target: T6, cynomolgous monkey CD25; experiment: SPR (BIAcore), cynomolgous CD25; remark: another data set of the same source

Kd | Binder
0.031 nM | B19
0.188 nM | B4
0.1 nM | B6
0.088 nM | B7
0.049 nM | B9
0.074 nM | B10

molecular target: T5, human CD25 (recombinant soluble); experiment: competitive ELISA with biotinylated daclizumab on CD25
Experimental: Wells of 96-well ELISA plates (Nunc-Immuno MaxiSorp plates, Nalge Nunc, Rochester, N.Y.) were coated with 100 μL of 0.2 μg/mL CD25 (Pepro Tech Inc., Rocky Hill, N.J.) in 0.2 M sodium carbonate-bicarbonate buffer (pH 9.4, Pierce, Rockford, Ill.) overnight at 4° C. After washing with Wash Buffer, wells were blocked with 200 μL of Superblock Blocking Buffer (Pierce, Rockford, Ill.) for 30 min and then washed. […] The plate was then washed with washing buffer three times. After washing, 100 μL of 1 μg/mL HRP-conjugated Streptavidin (Pierce) diluted in ELISA buffer was added to each well. After 30 minutes of incubation at room temperature, plates were washed and bound antibodies were detected by addition of ABTS substrate (Kirkegaard & Perry Laboratories, Gaithersburg, Md.). […] PRISM (GraphPad, San Diego) and reported as IC₅₀ wild type/IC₅₀ mutant (fold improvement over wild type control).

fold affinity over the parental antibody | Binder
~10 fold | B20
~10 fold | B21
~10 fold | B22
~10 fold | B23
~10 fold | B24
~10 fold | B25

molecular target: T1, recombinant human CD25 (IL2-Rα); experiment: direct-binding ELISA on plate-coated recombinant human IL2-Rα; EC50 benchmarked to DAC-HYP
Experimental: MaxiSorp ELISA plates (Nunc Nalge International) were coated overnight at 4° C. with 100 μl/well of a 50 ng/ml solution of recombinant human IL2-Rα (R&D Systems or PeproTech, Inc., Rocky Hill, N.J.) in DPBS (Invitrogen Corporation), washed with Wash Buffer (PBS containing 0.1% Tween 20), and blocked for 30 min at room temperature with 200 μl/well of SuperBlock Blocking Buffer in TBS (Pierce Chemical Company). After washing with Wash Buffer, test antibodies (starting at 4 μg/ml and serially diluted 3-fold) in 100 μl/well of ELISA buffer (PBS containing 1% BSA and 0.1% Tween 20) were added in duplicate. After incubating the plates for 1 hr at room temperature, and washing with Wash Buffer, bound antibodies were detected using 100 μl/well of a 1:20,000 dilution of HRP-conjugated goat anti-human IgG (Southern Biotechnology Associates, Inc.) in ELISA buffer. After incubating for 1 hr at room temperature, and washing with Wash Buffer, color development was performed by adding 150 μl/well of TMB Peroxidase Substrate/Peroxidase Solution B (KPL, Inc.). After incubating for 8 min at room temperature, color development was stopped by adding 50 μl/well of 2 N sulfuric acid. Absorbance was read at 450 nm.

Relative % Potency | Binder
132% | B1
109% | B2
